± gives the half width of the 95% confidence interval.

The source of these data is the supplement of paper PMC12764529.

The nature of series [1]: folding stability dG unfold from trypsin proteolysis; higher = more stable. A digest of the protocol: (§1)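 Sequencing followed digestion of designed mini-proteins with trypsin and chymotrypsin, each at 11 concentrations in threefold dilutions together with a no-protease condition. The mini-proteins were under 80 residues, had no cysteine, sat in a PA-tagged cDNA display construct, and were kept only if AlphaFold2 dimer inter-PAE was above 15. From the counts, Bayesian fitting gave K50, and unfolding free energy was derived against a sequence-predicted unfolded-state K50 and a shared folded-state K50, per protease or combined.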

Series [2] in a line: folding stability dG unfold from chymotrypsin proteolysis; higher = more stable. In outline:
as §1

Series [3] is described as follows: folding stability dG unfold (combined trypsin and chymotrypsin); higher = more stable. In outline:
as §1

As to “SAGLKIVEDIRKKLEEEGYDVKVKYEIKPEPKDGKYIITIEVTIKDEKGNEVPIGKETIVIPLEEYEKSSAG [r5_413_JUSTAS]”, the “folding stability dG unfold” value in series [1] turned out to be 1.27 ± 0.18 kcal/mol; in series [2], 2.74 ± 0.083 kcal/mol; in series [3] it was 2.28 ± 0.16 kcal/mol.

Regarding “SAGLKVKIVKAEVKNGYLTLEVEVTGKDGSKKPFKIKIKLKPVPKPKPVFKFTKLPNGEIKVEVFDPSSAGG [r19_172_TrMRF]”, the “folding stability dG unfold” value in series [1] stood at 2.76 ± 0.062 kcal/mol; in series [2], 3.212 ± 0.03 kcal/mol; in series [3] it was 3.04 ± 0.08 kcal/mol.

Turning to “SAGLLEVLRKIAEELGWELTSVEVHELPDGSVVATGEFRKGDRTYRVDIRYDPETGRVEVRLEPVPVPESAG [r14_784_TrMRF]”, the “folding stability dG unfold” value is 4.6 ± 0.22 kcal/mol in series [1], 5.51 ± 0.2 kcal/mol in series [2] and above 6 kcal/mol in series [3].

Consider “SAGLNIPPEMTVDELVEFLKSLGVKSYKVEKTEDPESYVVTFEFPDFTVVMTFHPDSVTITVVPKDEPLSAG [r5_899_TrMRF]”, for which the “folding stability dG unfold” value in series [1] came to 3.14 ± 0.11 kcal/mol; in series [2] it was 3.52 ± 0.061 kcal/mol; in series [3], 3.34 ± 0.14 kcal/mol.

Regarding “SAGLPIPEGATVKTLESSESVEGNKTVKTDKIIVTFPDGSTKEVEVVTTYDPNGNPTTTYIVGNKKIPLSAG [r5_507_JUSTAS]”, the “folding stability dG unfold” value in series [1] was 1.45 ± 0.052 kcal/mol; in series [2], 1.19 ± 0.058 kcal/mol; in series [3] it was 1.32 ± 0.059 kcal/mol.

For “SAGMAEKIKAELEKKGYKYEIEEVKDPNNDKTYLIVKIYPKDGKEYIIIFDKEKGEVIKKIPSDEPNILSAG [r5_938_JUSTAS]”, the results for the “folding stability dG unfold” value in series [1], in series [2] and in series [3] were 1.49 ± 0.13 kcal/mol, 1.59 ± 0.14 kcal/mol and 1.64 ± 0.24 kcal/mol, respectively.

Take “SAGMDLKIEEEEDPLSGSRLFRIELRDPDGKYNLTVVVLKENGKIKAVLVLRENTGEPLTLPELVELLESAG [r5_872_TrMRF]”: the “folding stability dG unfold” value in series [1] is 2.83 ± 0.19 kcal/mol; in series [2] it was 3.773 ± 0.017 kcal/mol; in series [3], 3.43 ± 0.086 kcal/mol.

On to “SAGMDPSDPNSITTLTTEVEPLPDGSTRVTTYTKLPDGTIVKNVTTLDPAGNVLTTTTTPIPPEALNASAGG [r19_285_JUSTAS]”, for which the results for the “folding stability dG unfold” value in series [1], in series [2] and in series [3] were 3.56 ± 0.17 kcal/mol, 3.85 ± 0.06 kcal/mol and 3.75 ± 0.096 kcal/mol, respectively.

As to “SAGMDVKELAKEAMEKYPPGDKEIEFEIPVGPRPFKVKIDYEPDPENGKPRPKITIENPDNGKKTEFTFSAG [r5_236_TrROS]”, the “folding stability dG unfold” value was -1.07 ± 0.74 kcal/mol in series [1], 0.61 ± 0.19 kcal/mol in series [2] and 0.11 ± 0.17 kcal/mol in series [3].

Take “SAGMEATIEIVGHPGDKEAIAVLRPEDKTVVIYKNKDGSYTVEVFEPNPARLIERKELPLEEAIKEALSAGG [r19_188_TrMRF]”: the “folding stability dG unfold” value was -0.343 ± 0.12 kcal/mol in series [1], 1.45 ± 0.064 kcal/mol in series [2] and 0.987 ± 0.13 kcal/mol in series [3].

Regarding “SAGMELELELEFRLEDGLEVRIRVKVRFDPETGELVIEEVRIEVRPLPPPPPLVLTDEELEALGLEPEESAG [r5_393_TrROS_Hall]”, the “folding stability dG unfold” value in series [1] amounted to 3.6 ± 0.23 kcal/mol; in series [2] it was 3.32 ± 0.13 kcal/mol; in series [3] it was 3.6 ± 0.16 kcal/mol.

For the sequence “SAGMELKVEIVAPKEVLLEKVKELEATIKKAFPKVKVEVEAKIEPLEGDEWKATVVIKIEPLPEDEPAESAG [r5_936_TrMRF]”, the “folding stability dG unfold” value in series [1] is 3.87 ± 0.27 kcal/mol; in series [2] it was 3.59 ± 0.18 kcal/mol; in series [3] it was 3.91 ± 0.78 kcal/mol.

Regarding “SAGMGSDVPVLTAVLSVLNPETGEEVTIEVPGRNDYGEGKLIRPVSPEDLLAAALAVADALLKDPSLKASAG [r5_426_TrMRF]”, the “folding stability dG unfold” value in series [1] worked out at 1.36 ± 0.036 kcal/mol; in series [2] it was 0.24 ± 0.22 kcal/mol; in series [3], 0.804 ± 0.11 kcal/mol.

With “SAGMIDVVVRVRLDVRPETVAEELRRRFPAIRRIEPVRVERRVEREPGRRYLLVHLRIELGDVPPELLRSAG [r5_326_TrMRF]”, the figures for the “folding stability dG unfold” value in series [1], in series [2] and in series [3] were 1.78 ± 0.032 kcal/mol, 3.714 ± 0.021 kcal/mol and 3.33 ± 0.063 kcal/mol, respectively.

“SAGMIEITVEVPAEDMTEEELKELAEELARALREAGLPEDVKIVDVRVERLPDGTVRVTIKIEVKPPPSAGG [r19_87_TrROS_Hall]”: the “folding stability dG unfold” value in series [1] is 4.24 ± 0.26 kcal/mol; in series [2] it was 3.59 ± 0.44 kcal/mol; in series [3], 4.36 ± 0.39 kcal/mol.

As for “SAGMILTIRPEDGSEEIIPVPKEDIEKLIEDLEKKGIKVLSMTTSPDGVSTIPTQYPDGKKMTITVHLDSAG [r5_645_JUSTAS]”, the “folding stability dG unfold” value in series [1] turned out to be 0.707 ± 0.098 kcal/mol; in series [2], 0.677 ± 0.22 kcal/mol; in series [3], 0.677 ± 0.16 kcal/mol.

Take “SAGMITLPTRGPEELIERLRAIAEELGLSEEDIEQFLRDLAEHATIEQDGDLLLITFQPPVPALPGEPESAG [r5_717_TrMRF]”: the “folding stability dG unfold” value is 1.23 ± 0.071 kcal/mol in series [1], 1.91 ± 0.037 kcal/mol in series [2] and 1.74 ± 0.17 kcal/mol in series [3].

For the sequence “SAGMITVPLPDGSVLELTVEKETVTTEVDPSTGKKRLVTETLMTNTGDLAVNGKVSPTTATLTTVVLESAGG [r19_246_JUSTAS]”, the “folding stability dG unfold” value in series [1] was -0.36 ± 0.067 kcal/mol; in series [2], 0.373 ± 0.045 kcal/mol; in series [3], 0.155 ± 0.069 kcal/mol.

“SAGMKAYIVSVEKNEDGTETIKLKVYFLDKNGKVVETKEITIKKGETIKITFPNGKTITVPAKDLKLVKSAG [r5_137_TrROS_Hall]”: the “folding stability dG unfold” value was determined as 2.02 ± 0.083 kcal/mol in series [1], 3.703 ± 0.033 kcal/mol in series [2] and 3.24 ± 0.082 kcal/mol in series [3].

Turning to “SAGMKAYNIKELKIEKIEKKGNKIKIKISGKGKFYFKTFSNGSAIIYIKKTNKAYYIDSNGKIVYIKDTSAG [r5_348_TrMRF]”, the “folding stability dG unfold” value in series [1] amounted to 1.75 ± 0.12 kcal/mol; in series [2], 1.56 ± 0.13 kcal/mol; in series [3], 1.76 ± 0.27 kcal/mol.

With “SAGMKIEIEAEYDPESGTVTLHIKEEPEPGEPVEVKFPIKFLKDKVEIEAETEEPLDPEEILKKIKEELSAG [r5_478_TrMRF]”, the “folding stability dG unfold” value in series [1] is -0.161 ± 0.14 kcal/mol; in series [2], 0.835 ± 0.12 kcal/mol; in series [3] it was 0.513 ± 0.2 kcal/mol.

With “SAGMKIEVKRLPGPGDYLFTLVDPELAARLKAVYPGLEEVIFPVGGPDSVPEEEIKERAEKELKELLLSAGG [r19_298_JUSTAS]”, the “folding stability dG unfold” value in series [1] is -0.0847 ± 0.17 kcal/mol; in series [2], -0.66 ± 0.64 kcal/mol; in series [3], -0.268 ± 0.31 kcal/mol.

For “SAGMKIKIIKLDKNLEELSEEELKKLLEELAKKGLVEKKKDGKKVIPLTVIDKKTKKTYTFYIEIEKPPSAG [r5_243_TrROS_Hall]”, the “folding stability dG unfold” value in series [1] came out at 1.36 ± 0.041 kcal/mol; in series [2], 2.72 ± 0.057 kcal/mol; in series [3], 2.33 ± 0.17 kcal/mol.

For the sequence “SAGMKIKVEVKETGETYEIEISEEELKKKLKEKFPEVKEITVVVEDPEDMSEEELREKALKAAEELLKSAGG [r19_298_TrROS_Hall]”, the “folding stability dG unfold” value in series [1] amounted to 1.59 ± 0.067 kcal/mol; in series [2] it was 2.49 ± 0.051 kcal/mol; in series [3] it was 2.28 ± 0.18 kcal/mol.

In the case of “SAGMKITLPKGVKSIKVEEVNGKKVIYIEVDGKIFVYDLKTGKLYIYDKKTGEKKEITIKKGDTITLKSAGG [r19_138_TrROS_Hall]”, the “folding stability dG unfold” value in series [1] was 1.03 ± 0.028 kcal/mol; in series [2] it was 1.79 ± 0.067 kcal/mol; in series [3], 1.55 ± 0.07 kcal/mol.

With “SAGMKITVVELDGKSPEELSEEELKKLAEELLKELFPDVKKVKKVTVKVERLPDGRLVLVEVEIEVEEPSAG [r5_526_TrROS_Hall]”, the “folding stability dG unfold” value was determined as 2.18 ± 0.13 kcal/mol in series [1], 1.03 ± 0.089 kcal/mol in series [2] and 1.79 ± 0.13 kcal/mol in series [3].

Consider “SAGMKIVEIEKKEDGTVKIKIEVNGEEKEIEVKVGETITLPDGSEIEVLEDGTIKVRPLPEPEVEEEESAGG [r19_17_TrROS_Hall]”, for which the “folding stability dG unfold” value in series [1] stood at 3.24 ± 0.39 kcal/mol; in series [2], 2 ± 0.17 kcal/mol; in series [3], 2.64 ± 0.26 kcal/mol.

For the sequence “SAGMKKKITVKVKVKTEEEAEKLAEELEKELGLKVTVEKNEETGVYTITVEVSPEAVEALKKAGVEIESAGG [r19_306_TrROS_Hall]”, the “folding stability dG unfold” value in series [1] was 1.93 ± 0.33 kcal/mol; in series [2], 1.92 ± 0.083 kcal/mol; in series [3], 1.86 ± 0.28 kcal/mol.

As for “SAGMKKKKIKKVEIEIKKGEKTIRVKLENGEEIEYKFKEEDLEEALKKIAEKLGLKKGDKIKIVEIEIESAG [r5_923_TrROS_Hall]”, the “folding stability dG unfold” value in series [1] was 1.16 ± 0.12 kcal/mol; in series [2], 0.907 ± 0.13 kcal/mol; in series [3] it was 1.29 ± 0.33 kcal/mol.

In the case of “SAGMKKPPPPTVTIKIRVNGKTITITVYPDGTVTVTFENGEKKTIKMTPEEVEKLLKELEKKGYEIELVSAG [r5_753_TrROS_Hall]”, the “folding stability dG unfold” value in series [1] worked out at 2.51 ± 0.26 kcal/mol; in series [2] it was 0.664 ± 0.33 kcal/mol; in series [3], 1.49 ± 0.48 kcal/mol.

“SAGMKKVKIETTEFREFEGGEREIVMKVYKPDGSEVATVVLPFPPDLSEEEMRERAEAEAKKLAEELGLSAG [r5_697_JUSTAS]”: the “folding stability dG unfold” value in series [1] worked out at 0.581 ± 0.094 kcal/mol; in series [2], 0.579 ± 0.17 kcal/mol; in series [3] it was 0.636 ± 0.21 kcal/mol.

In the case of “SAGMKPEEVRVIEIPPGMTVEEIIEAIEKEGPLRIRVEGKELEFESKEDIEAAIRNAPEPVRIEVRRLSAGG [r19_95_TrROS_Hall]”, the results for the “folding stability dG unfold” value in series [1], in series [2] and in series [3] were 0.865 ± 0.04 kcal/mol, 1.05 ± 0.092 kcal/mol and 1 ± 0.089 kcal/mol, respectively.

On to “SAGMKPGDMRPVEIPFEIYQYDDGGPKPVAPMTIKIMVNPDEGYVMLEIENPGNGEPVIIFTLPADDISAGG [r19_413_TrROS]”, for which the “folding stability dG unfold” value was 1.65 ± 0.055 kcal/mol in series [1], 2.42 ± 0.057 kcal/mol in series [2] and 2.16 ± 0.1 kcal/mol in series [3].

With “SAGMKPGEPITLVLPDGVVIPIKINPNGGVEIDDIEPPPDGTYNMDARHPNNGKEITLNIKLPPGFQILSAG [r5_394_TrROS]”, the figures for the “folding stability dG unfold” value in series [1], in series [2] and in series [3] were 1.93 ± 0.13 kcal/mol, 0.239 ± 0.77 kcal/mol and 0.95 ± 0.43 kcal/mol, respectively.

As for “SAGMKPGETIKNAKIRITYPNGEKKELKIDDVVKIVEIDEEKGVITIELKNGEKIEIKLPPGAKIEIEPSAG [r5_762_TrROS_Hall]”, the “folding stability dG unfold” value in series [1] stood at 3.42 ± 0.26 kcal/mol; in series [2] it was 1.83 ± 0.24 kcal/mol; in series [3] it was 3.2 ± 0.58 kcal/mol.
